In US20080215402A1, “Methods and Systems for Evaluating Interaction of Medical Products and Dependence on Demographic Variables” (priority 2005, published 2008):
Where two headings read alike, the source gives them in different places. Marks after values point to notes of the source that are not given here.

Assays:
[1] = orthogonalized contingency lattice analysis of AERS reports, reference condition rhabdomyolysis; conditions: for Z (z-score, rhabdomyolysis vs non-rhabdomyolysis randomized datasets): * = significant at Bonferroni-corrected 5% level (|z| > 12); for Nrhabdo (subset size based on the rhabdomyolysis dataset): records listing the drug(s) and excluding the other drugs, NR=11,773
[2] = human
[3] = N=898 tuberculosis patients vs 200 random samples; Bonferroni-corrected 5% threshold; FIG. 7
[4] = two-way interaction analysis of AERS records, Infliximab and Methotrexate with pulmonary fibrosis; parameters: species or system patients; conditions: records listing both drugs vs 100 random samples of each reference population; FIG. 6
[5] = reaction: antinuclear antibody positive
[6] = reaction: crohn's disease aggravated
[7] = reaction: disseminated tuberculosis
[8] = reaction: dna antibody nos positive
[9] = reaction: drug withdrawal syndrome
[10] = reaction: infusion related reaction
[11] = reaction: pharmaceutical product complaint
[12] = reaction: pneumocystis carinii pneumonia
[13] = reaction: pulmonary tuberculosis
[14] = reaction: rheumatoid arthritis aggravated
[15] = reaction: systemic lupus erythematosus

For `COC(=O)[C@H](c1ccccc1Cl)N1CCc2sccc2C1` [Case P, clopidogrel bisulfate], the “Nref^+ (maximum subset size from the 200 randomly generated non-rhabdomyolysis datasets)” value [1] was 169, the “Nref^− (minimum subset size from the 200 randomly generated non-rhabdomyolysis datasets)” value [1] was 109 and the “PChebyshev (probability derived from the Chebyshev inequality)” value (from here on “PChebyshev”) [1] was 2.20 × 10^−1. The “Z (z-score, rhabdomyolysis vs non-rhabdomyolysis randomized datasets)” value [1] was 2, the “Nrhabdo (subset size based on the rhabdomyolysis dataset)” value (from here on “Nrhabdo”) [1] was 163 and the “Nref^+ (maximum subset size from the 200 randomly generated non-rhabdomyolysis datasets)” value [2] was 177. The “Nref^− (minimum subset size from the 200 randomly generated non-rhabdomyolysis datasets)” value [2] was 114, the “Nrhabdo” value [2] was 465 and the “PChebyshev” value [2] was 1.43 × 10^−3. The “association with rhabdomyolysis (in words)” value [2] was “significant at the Bonferroni-corrected 5%” and the “z (z-score, rhabdomyolysis vs non-rhabdomyolysis datasets)” value [2] was 26*.
For `Cc1ccc(C)c(OCCCC(C)(C)C(=O)O)c1` [Case L, gemfibrozil], the “Nref^+ (maximum subset size from the 200 randomly generated non-rhabdomyolysis datasets)” value [1] was 55, the “Nref^− (minimum subset size from the 200 randomly generated non-rhabdomyolysis datasets)” value [1] was 21 and the “PChebyshev” value [1] was 5.36 × 10^−4. The “association with rhabdomyolysis (in words)” value [1] was “only weak evidence”, the “Z (z-score, rhabdomyolysis vs non-rhabdomyolysis randomized datasets)” value ([1]; listed as L BP) was 43* and the “Z (z-score, rhabdomyolysis vs non-rhabdomyolysis randomized datasets)” value ([1]; listed as Lopid) was 43. The “Nrhabdo” value [1] was 306, the “Nref^+ (maximum subset size from the 200 randomly generated non-rhabdomyolysis datasets)” value [2] was 72 and the “Nref^− (minimum subset size from the 200 randomly generated non-rhabdomyolysis datasets)” value [2] was 33. For the same compound, the “Nrhabdo” value [2] was 2982 and the “PChebyshev” value [2] was 6.16 × 10^−6.
For infliximab, the “association with tuberculosis by orthogonalized lattice analysis (in words)” value [3] was “only strong positive association with tuberculosis”, the “number of adverse events that exceed the Bonferroni-corrected 5% significance threshold” value (AERS) was 365 and the Uab (designation: bone & joint tuberculosis) was 1.09 × 10^5. For the same compound, the Uab (designation: bone amp joint tuberculosis) was 1.34 × 10^6, the Uab (designation: disseminated tuberculosis) was 6.22 × 10^117 and the Uab (designation: lymph node tuberculosis) was 1.57 × 10^8. The Uab (designation: lymph node tuberculosis nos) was 4.98 × 10^15, the Uab (designation: peritoneal tuberculosis) was 8.61 × 10^9 and the Uab (designation: pulmonary tuberculosis) was 1.11 × 10^109. The Uab (designation: spleen tuberculosis) was 1.47 × 10^12, the Uab (designation: tuberculosis) was 1.18 × 10^74 and the Uab (designation: tuberculosis gastrointestinal nos) was 2.85 × 10^10. For the same compound, the Uab (designation: tuberculosis nos) was >10^308, the Uab (designation: tuberculosis reactivated) was 3.40 × 10^6 and the NAB [5] was 65. For the same compound, the RAB [5] was 12.93, the “log10 UAB (Statistical Unexpectedness)” value [5] was 51.53 and the NAB (reaction: basal cell carcinoma) was 88. The RAB (reaction: basal cell carcinoma) was 21.17, the “log10 UAB (Statistical Unexpectedness)” value (reaction: basal cell carcinoma) was 92.07 and the NAB (reaction: crohn's disease) was 60. The RAB (reaction: crohn's disease) was 11.26, the “log10 UAB (Statistical Unexpectedness)” value (reaction: crohn's disease) was 43.74 and the NAB [6] was 45. The RAB [6] was 22.02, the “log10 UAB (Statistical Unexpectedness)” value [6] was 48.51 and the NAB [7] was 93. For the same compound, the RAB [7] was 30.00, the “log10 UAB (Statistical Unexpectedness)” value [7] was 117.79 and the NAB [8] was 59. For the same compound, the RAB [8] was 24.01, the “log10 UAB (Statistical Unexpectedness)” value [8] was 66.39 and the NAB [9] was 2. The RAB [9] was 0.02, the “log10 UAB (Statistical Unexpectedness)” value [9] was 44.68 and the NAB (reaction: flushing) was 254. For the same compound, the RAB (reaction: flushing) was 4.37, the “log10 UAB (Statistical Unexpectedness)” value (reaction: flushing) was 83.41 and the NAB [10] was 63. The RAB [10] was 19.32, the “log10 UAB (Statistical Unexpectedness)” value [10] was 62.93 and the NAB (reaction: listeriosis) was 41. The RAB (reaction: listeriosis) was 30.26, the “log10 UAB (Statistical Unexpectedness)” value (reaction: listeriosis) was 52.60 and the NAB (reaction: lupus-like syndrome) was 179. The RAB (reaction: lupus-like syndrome) was 27.45, the “log10 UAB (Statistical Unexpectedness)” value (reaction: lupus-like syndrome) was 215.11 and the NAB (reaction: medication error) was 17. For the same compound, the RAB (reaction: medication error) was 0.07, the “log10 UAB (Statistical Unexpectedness)” value (reaction: medication error) was 75.78 and the NAB [11] was 6. For the same compound, the RAB [11] was 0.05, the “log10 UAB (Statistical Unexpectedness)” value [11] was 41.69 and the NAB [12] was 66. For the same compound, the RAB [12] was 9.58, the “log10 UAB (Statistical Unexpectedness)” value [12] was 43.17 and the NAB (reaction: pneumonia nos) was 369. For the same compound, the RAB (reaction: pneumonia nos) was 2.92, the “log10 UAB (Statistical Unexpectedness)” value (reaction: pneumonia nos) was 71.42 and the NAB [13] was 99. For the same compound, the RAB [13] was 23.31, the “log10 UAB (Statistical Unexpectedness)” value [13] was 109.04 and the NAB (reaction: pyrexia) was 596. For the same compound, the RAB (reaction: pyrexia) was 1.80, the “log10 UAB (Statistical Unexpectedness)” value (reaction: pyrexia) was 41.44 and the RAB (reaction: rhabdomyolysis) was 0.08. For the same compound, the “log10 UAB (Statistical Unexpectedness)” value (reaction: rhabdomyolysis) was 58.33, the NAB [14] was 60 and the RAB [14] was 12.27. The “log10 UAB (Statistical Unexpectedness)” value [14] was 46.14, the NAB (reaction: rigors) was 252 and the RAB (reaction: rigors) was 2.65. For the same compound, the “log10 UAB (Statistical Unexpectedness)” value (reaction: rigors) was 41.86, the NAB (reaction: sepsis nos) was 268 and the RAB (reaction: sepsis nos) was 3.28. The “log10 UAB (Statistical Unexpectedness)” value (reaction: sepsis nos) was 61.87, the NAB [15] was 192 and the RAB [15] was 11.24. The “log10 UAB (Statistical Unexpectedness)” value [15] was 137.84, the NAB (reaction: tuberculosis) was 64 and the RAB (reaction: tuberculosis) was 25.34. For the same compound, the “log10 UAB (Statistical Unexpectedness)” value (reaction: tuberculosis) was 74.07, the NAB (reaction: tuberculosis nos) was 275 and the RAB (reaction: tuberculosis nos) was 29.00. For the same compound, the “log10 UAB (Statistical Unexpectedness)” value (reaction: tuberculosis nos) was >308.00.
With `CN(Cc1cnc2nc(N)nc(N)c2n1)c1ccc(C(=O)N[C@@H](CCC(=O)O)C(=O)O)cc1` [Methotrexate, methotrexate] the “drug interaction with respect to pulmonary fibrosis (in words)” value [4] was “responsible for the large number of cases seen when both drugs are present”.
